Data set [1] is described as follows: Analytical (equilibrium) ultracentrifugation. It is filed as physicochemical. Conditions: for σobs/σcalc (reduced apparent molecular weight, observed/calculated): non-ideal single-species model, 20 mM potassium phosphate, 150 mM KCl, pH 7.1, 277 K. As for the experimental part: Samples (in 20 mM potassium phosphate, 150 mM KCl, pH 7.1; 277 K) were analyzed in a Beckman XL-A ultracentrifuge at rotor speeds of 40 and 55 krpm. Peptide concentration was monitored by absorbance at or near 290 nm. Data for both speeds and two initial peptide concentrations (60 and 200 μM, […] data sets total per peptide) were fit simultaneously to a nonideal single species model using the program NONLIN. Johnson et al. (1981) Biophys. J. 36: 575–588.
Allowing nonideality improved the fit for the 200 μM samples while only slightly changing the reduced apparent molecular weight σ (˜+6%). For all 3 peptides, data from 60 μM samples fit an ideal model (FIG. 2) with random residuals. Expected σ values were determined from partial specific volumes based on residue composition, calculated buffer density, and monomer formula weights.

A short description of data set [2]: CD-monitored thermal denaturation (two-state unfolding fit). It is filed as physicochemical. Conditions: for ΔCp / Tm / ΔHm: 20 μM peptide in 20 mM potassium phosphate; for ΔCp / Tm / ΔSm / ΔHm: pH 7.0; for Tm: CD at 229 nm; for ΔSm: calculated from the fit parameters (ΔHm/Tm), 20 μM peptide, 20 mM potassium phosphate; for ΔHm: ΔH at Tm. As for the experimental part: Spectra were acquired with an Aviv Instruments, Inc. Model 202 spectrophotometer. Peptide concentrations were determined spectrophotometrically as described in Gill & von Hippel (1989) Anal. Biochem. 182:319–326. Melting curves were acquired at 229 nm with […] equilibration at each temperature and an averaging time of 15 s. Thermal denaturation was reversible, as judged by recovery of CD signal (≧95%) upon cooling. In addition, reverse melting curves were acquired for trpzips 1 and 4. Reverse and forward curves were identical in shape, with≦0.5 K shift in Tm. As a model for the unfolded state of the peptides, the melting curve (linear) of an equimolar mixture of the trpzip1 half peptides SWTWEG[SEQ ID NO: 14] and NKWTWK [SEQ ID NO: 15] was measured. Data for the trpzip peptides were then fit to a two-state unfolding equilibrium as described in Minor & Kim (1994) Nature 367:660–663, fixing the unfolded baseline. Folded baselines, Tm, ΔHm (ΔH at Tm), and ΔCp were allowed to vary. For trpzips 5 and 6, the unfolded baseline could be fit directly to the experimental data. ΔSm was calculated from the fit parameters (ΔHm/Tm). Errors in Table 2 were generated by the fitting algorithm (Kaleidagraph, Synergy Software) and were given to indicate the quality of the fits to the particular experimental data set. However, when fitting different data sets, ΔHm and ΔCp values varied by ˜10%, as is typical in thermal denaturation experiments. Becktel & Scheilman (1987) Biopolymers 26:1859–1877.
Fitting the trpzip denaturation curves in this manner required large shifts in Tm (˜5–10 K higher than the minimum in a derivative plot) and generated fits of lower quality. […] From our data on trpzips 4, 5 and 6, we can estimate ΔCp ˜200 cal mol^−1 K^−1 for the gb1 peptide, which is sufficient to explain the discrepancy between our population estimate for the gb1 hairpin and those previously reported (Munoz et al. (1997), supra; Honda et al. (2000), supra). Recently, a non-zero ΔCp (˜100 cal mol^−1 K^−1) was reported for the unfolding of a 12-residue hairpin related to gb1. Espinosa & Gellman (2000) Angew. Chem. Int. Ed. 39:2330–2333.

The conditions of data set [3]: literature estimates, in water, gb1 at 278 K by NMR, cited from earlier work.

The text below walks through data of patent US7229777B2, “Hairpin peptides with a novel structural motif and methods relating thereto” (Genentech, Inc., priority 2001, dated 2007).

Where two headings read alike, the source gives them in different places. Square brackets hold non-standard residues; d marks the D form. Ends that are not written are not given here.

Regarding “SWTWEpNKWTWK (SWTWE[dP]NKWTWK-NH2; N-terminus assumed; SMILES C[C@@H](O)[C@H](NC(=O)[C@H](Cc1c[nH]c2ccccc12)NC(=O)[C@H](CCCCN)NC(=O)[C@H](CC(N)=O)NC(=O)[C@H]1CCCN1C(=O)[C@H](CCC(=O)O)NC(=O)[C@H](Cc1c[nH]c2ccccc12)NC(=O)[C@@H](NC(=O)[C@H](Cc1c[nH]c2ccccc12)NC(=O)[C@@H](N)CO)[C@@H](C)O)C(=O)N[C@@H](Cc1c[nH]c2ccccc12)C(=O)N[C@@H](CCCCN)C(N)=O) [trpzip3]”, the “σobs/σcalc (reduced apparent molecular weight, observed/calculated)” value in data set [1] is on record as 1.00 ± 0.04. Also, in data set [2], the ΔCp is recorded as 195 ± 2 cal mol^−1 K^−1, the midpoint of thermal melting (Tm) came to 78.7 ± 0.2 °C, the ΔSm is on record as 37.0 cal mol^−1 K^−1 and the ΔHm worked out at 13.02 ± 0.07 kcal/mol.

In the case of “GEWTYDDATKTFTVTE (Streptococcus; Streptococcus Full The 41-56 residue fragment of the protein G B1 domain) [gb1, reference compound]”, the Hairpin population in data set [3] was approximately 40%; in data set [3] (listed as GB1 hairpin), “about 50%”. Moreover, in data set [2], the “ΔCp, estimated from data on trpzips 4, 5 and 6” value was approximately 200 cal mol^−1 K^−1. Also, the “ΔGunf, estimated assuming additive stabilization from the two pairs” value in data set [2] (298 K, estimated from trpzips 4, 5 and 6) was approximately -0.6 kcal/mol.

Regarding “GEWTWDDATKTWTWTE (GEWTWDDATKTWTWTE-NH2) [trpzip4]”, in data set [2], the ΔCp is given as 380 ± 4 cal mol^−1 K^−1, the Tm was found to be 70.0 ± 0.1 °C, the ΔSm is given as 63.7 cal mol^−1 K^−1 and the ΔHm worked out at 21.86 ± 0.06 kcal/mol. The unfolding free energy in data set [2] (298 K) turned out to be 1.69 kcal/mol. The “Melting temperature higher than that of wt gb1 peptide” value in data set [2] (depending on the method used to estimate the folded population of gb1) was “at least 40 K”.

Take “GEWTWDDATKTWTVTE (GEWTWDDATKTWTVTE-NH2) [trpzip6]”: in data set [2], the ΔCp is on record as 236 ± 17 cal mol^−1 K^−1, the Tm came to 44.6 ± 0.48 °C, the ΔSm is on record as 32.4 cal mol^−1 K^−1 and the ΔHm came out at 10.29 ± 0.3 kcal/mol. Further, the unfolding free energy in data set [2] (298 K) was found to be 0.49 kcal/mol.

“GEWTYDDATKTFTWTE (GEWTYDDATKTFTWTE-NH2) [trpzip5]”: in data set [2], the ΔCp is 325 ± 10 cal mol^−1 K^−1, the Tm amounted to 42.7 ± 0.2 °C, the ΔSm is 42.2 cal mol^−1 K^−1 and the ΔHm came out at 13.32 ± 0.14 kcal/mol. Also, the unfolding free energy in data set [2] (298 K) was found to be 0.57 kcal/mol.

Regarding “GEWVWDDATKTWHWTE (GEWVWDDATKTWHWTE-NH2) [trpzip8]”, in data set [2], the ΔCp is 440 ± 4 cal mol^−1 K^−1, the Tm came to 79.1 ± 0.1 °C, the ΔSm is 73.8 cal mol^−1 K^−1 and the ΔHm worked out at 25.98 ± 0.11 kcal/mol.

On to “SWTWENGKWTWK (SWTWENGKWTWK-NH2) [trpzip2]”, for which, in data set [1], the “Peptide concentration up to which monomeric” value is on record as “at least 200 μM” and the “σobs/σcalc (reduced apparent molecular weight, observed/calculated)” value is on record as 1.01 ± 0.04. Moreover, in data set [2], the ΔCp is 281 ± 2 cal mol^−1 K^−1, the Tm is 71.9 ± 0.1 °C, the ΔSm is listed as 48.6 cal mol^−1 K^−1 and the ΔHm is 16.77 ± 0.06 kcal/mol.

Regarding “SWTWEGNKWTWK (SWTWEGNKWTWK-NH2) [trpzip1]”, the “σobs/σcalc (reduced apparent molecular weight, observed/calculated)” value in data set [1] was 1.02 ± 0.04. Also, in data set [2], the ΔCp amounted to 231 ± 4 cal mol^−1 K^−1, the Tm worked out at 49.9 ± 0.3 °C, the ΔSm is 33.4 cal mol^−1 K^−1 and the ΔHm was found to be 10.79 ± 0.12 kcal/mol. In addition, the melting temperature (Tm) in data set [2] (listed as Trpzip1) was found to be 50 °C. Besides, the “Dependence of thermal denaturation on peptide concentration” value in data set [2] (trpzip1 20–150 μM, trpzip4 100 μM vs. 20 μM) was “does not shift with peptide concentration”.

Turning to “GEWHWDDATKTWVWTE (GEWHWDDATKTWVWTE-NH2) [trpzip7]”, in data set [2], the ΔCp is recorded as 418 ± 4 cal mol^−1 K^−1, the Tm is 80.2 ± 0.1 °C, the ΔSm is recorded as 70.8 cal mol^−1 K^−1 and the ΔHm is 25.03 ± 0.1 kcal/mol.

With “GEWVWDDATKTWVWTE (GEWVWDDATKTWVWTE-NH2) [trpzip9]”, in data set [2], the ΔCp was 402 ± 2 cal mol^−1 K^−1, the Tm is 92.0 ± 0.0 °C, the ΔSm is on record as 73.1 cal mol^−1 K^−1 and the ΔHm was found to be 26.69 ± 0.08 kcal/mol.

By Tm is commonly meant the temperature at the midpoint of the melting transition.
